Experimental data from the supplement of paper PMC10065799, “High-throughput profiling of sequence recognition by tyrosine kinases and SH2 domains using bacterial peptide display” (eLife, 2023).

Assays:
Grb2 SH2 = Grb2 SH2 (UniProt P62993); assay: SH2 binding enrichment of the phosphorylated peptide, bacterial display (enrichment ratio); higher = better substrate or ligand; peptides without Tyr show the background
c-Src SH2 = assay: as above
SHP2-C SH2 = assay: as above
Fes = Fes (UniProt P07332); assay: phosphorylation enrichment, bacterial display (enrichment ratio); higher = better substrate or ligand; peptides without Tyr show the background
Fes, sequence (P07332 whole entry, looked up): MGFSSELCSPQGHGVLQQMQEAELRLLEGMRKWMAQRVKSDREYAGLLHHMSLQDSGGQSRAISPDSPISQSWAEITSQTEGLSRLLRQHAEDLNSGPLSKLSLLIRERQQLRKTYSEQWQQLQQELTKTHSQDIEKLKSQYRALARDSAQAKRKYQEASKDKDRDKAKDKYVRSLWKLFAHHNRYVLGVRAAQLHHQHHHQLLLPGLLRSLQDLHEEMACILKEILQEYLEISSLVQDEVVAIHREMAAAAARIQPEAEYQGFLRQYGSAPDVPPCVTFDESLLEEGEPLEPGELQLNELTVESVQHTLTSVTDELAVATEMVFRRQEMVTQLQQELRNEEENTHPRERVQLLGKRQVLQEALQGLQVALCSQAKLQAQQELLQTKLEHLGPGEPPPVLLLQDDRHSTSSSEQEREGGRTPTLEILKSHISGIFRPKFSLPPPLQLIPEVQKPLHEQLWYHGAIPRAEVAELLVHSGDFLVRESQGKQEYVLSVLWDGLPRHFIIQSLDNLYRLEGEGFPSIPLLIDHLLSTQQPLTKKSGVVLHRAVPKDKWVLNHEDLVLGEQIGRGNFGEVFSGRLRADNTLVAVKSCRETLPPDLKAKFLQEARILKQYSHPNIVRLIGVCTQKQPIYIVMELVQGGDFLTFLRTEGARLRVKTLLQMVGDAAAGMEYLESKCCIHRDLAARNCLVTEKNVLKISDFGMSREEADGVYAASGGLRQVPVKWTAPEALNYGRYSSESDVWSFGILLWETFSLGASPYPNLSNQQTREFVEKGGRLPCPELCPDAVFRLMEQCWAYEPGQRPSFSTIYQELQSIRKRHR

EPHB2 = EPHB2 (UniProt P29323); assay: as above
EPHB2, sequence (P29323 whole entry, looked up): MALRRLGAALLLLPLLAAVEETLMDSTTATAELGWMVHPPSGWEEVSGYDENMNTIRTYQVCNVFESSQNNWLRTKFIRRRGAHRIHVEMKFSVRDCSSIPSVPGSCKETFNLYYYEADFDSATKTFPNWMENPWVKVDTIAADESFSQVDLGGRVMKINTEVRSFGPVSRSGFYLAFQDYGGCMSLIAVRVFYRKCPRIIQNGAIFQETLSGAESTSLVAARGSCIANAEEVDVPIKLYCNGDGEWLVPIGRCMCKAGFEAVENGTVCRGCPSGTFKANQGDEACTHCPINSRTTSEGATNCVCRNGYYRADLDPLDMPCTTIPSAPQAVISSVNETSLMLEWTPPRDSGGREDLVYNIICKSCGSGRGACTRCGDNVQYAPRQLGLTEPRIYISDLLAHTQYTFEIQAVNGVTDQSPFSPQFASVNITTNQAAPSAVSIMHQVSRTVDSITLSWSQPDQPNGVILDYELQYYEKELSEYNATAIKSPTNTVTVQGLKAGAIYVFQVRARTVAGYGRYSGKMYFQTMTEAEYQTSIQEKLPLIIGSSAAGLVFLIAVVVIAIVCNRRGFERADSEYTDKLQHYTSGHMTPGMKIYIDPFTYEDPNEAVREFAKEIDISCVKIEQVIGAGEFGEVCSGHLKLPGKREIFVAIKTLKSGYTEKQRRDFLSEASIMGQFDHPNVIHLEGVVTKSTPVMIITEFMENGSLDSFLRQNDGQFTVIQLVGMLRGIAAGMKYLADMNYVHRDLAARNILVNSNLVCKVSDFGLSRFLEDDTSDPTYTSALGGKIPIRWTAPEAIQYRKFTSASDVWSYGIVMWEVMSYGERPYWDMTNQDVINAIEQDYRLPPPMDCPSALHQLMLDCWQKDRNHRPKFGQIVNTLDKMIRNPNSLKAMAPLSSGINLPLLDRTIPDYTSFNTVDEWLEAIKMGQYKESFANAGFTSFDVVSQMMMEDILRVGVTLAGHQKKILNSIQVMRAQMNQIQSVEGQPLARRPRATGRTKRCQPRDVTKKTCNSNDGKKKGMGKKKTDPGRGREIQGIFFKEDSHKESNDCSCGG

c-Src = assay: as above
MERTK = MERTK (UniProt Q12866); assay: as above
MERTK, sequence (Q12866 whole entry, looked up): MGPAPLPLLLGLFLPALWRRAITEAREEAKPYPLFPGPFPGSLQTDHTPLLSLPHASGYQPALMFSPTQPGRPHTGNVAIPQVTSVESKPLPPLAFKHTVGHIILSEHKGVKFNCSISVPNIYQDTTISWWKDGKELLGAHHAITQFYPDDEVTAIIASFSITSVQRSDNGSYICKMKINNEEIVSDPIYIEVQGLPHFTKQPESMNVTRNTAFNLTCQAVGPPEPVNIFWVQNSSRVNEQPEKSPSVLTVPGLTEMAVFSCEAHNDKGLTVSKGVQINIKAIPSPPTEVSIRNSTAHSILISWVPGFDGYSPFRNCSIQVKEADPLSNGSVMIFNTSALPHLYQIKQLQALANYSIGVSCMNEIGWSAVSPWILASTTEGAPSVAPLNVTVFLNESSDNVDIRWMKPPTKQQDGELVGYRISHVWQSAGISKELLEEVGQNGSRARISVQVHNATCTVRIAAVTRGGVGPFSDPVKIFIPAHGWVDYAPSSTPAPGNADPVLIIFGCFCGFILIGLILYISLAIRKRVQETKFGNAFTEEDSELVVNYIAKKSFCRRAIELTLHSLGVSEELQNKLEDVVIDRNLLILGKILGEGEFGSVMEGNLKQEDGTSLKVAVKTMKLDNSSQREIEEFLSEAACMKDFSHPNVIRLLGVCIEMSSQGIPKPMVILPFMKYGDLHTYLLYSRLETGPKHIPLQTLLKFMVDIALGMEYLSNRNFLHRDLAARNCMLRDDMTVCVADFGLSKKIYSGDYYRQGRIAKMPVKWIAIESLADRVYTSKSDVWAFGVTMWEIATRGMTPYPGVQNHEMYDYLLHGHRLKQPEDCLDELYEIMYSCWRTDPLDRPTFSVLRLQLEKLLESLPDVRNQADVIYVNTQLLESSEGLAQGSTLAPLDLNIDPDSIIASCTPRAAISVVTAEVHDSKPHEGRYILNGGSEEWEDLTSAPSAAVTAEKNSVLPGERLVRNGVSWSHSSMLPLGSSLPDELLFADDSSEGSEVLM

Hck = Hck (UniProt P08631); assay: as above
Hck, sequence (P08631 whole entry, looked up): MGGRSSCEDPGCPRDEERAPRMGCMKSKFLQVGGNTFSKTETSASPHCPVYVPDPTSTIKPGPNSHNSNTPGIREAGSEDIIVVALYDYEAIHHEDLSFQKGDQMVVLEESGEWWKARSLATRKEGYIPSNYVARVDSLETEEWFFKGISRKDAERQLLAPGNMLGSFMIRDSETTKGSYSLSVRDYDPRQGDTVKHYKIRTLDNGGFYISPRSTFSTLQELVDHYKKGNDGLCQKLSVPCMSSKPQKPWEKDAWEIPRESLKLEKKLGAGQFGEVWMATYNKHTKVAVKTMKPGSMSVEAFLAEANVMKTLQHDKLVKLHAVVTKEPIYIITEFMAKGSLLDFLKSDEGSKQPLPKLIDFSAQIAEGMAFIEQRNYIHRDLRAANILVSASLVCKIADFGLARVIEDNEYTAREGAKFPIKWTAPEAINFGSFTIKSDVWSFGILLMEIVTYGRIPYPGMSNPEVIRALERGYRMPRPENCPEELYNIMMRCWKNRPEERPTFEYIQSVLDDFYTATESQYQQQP

FGFR3 = FGFR3 (UniProt P22607); assay: as above
FGFR3, sequence (P22607 whole entry, looked up): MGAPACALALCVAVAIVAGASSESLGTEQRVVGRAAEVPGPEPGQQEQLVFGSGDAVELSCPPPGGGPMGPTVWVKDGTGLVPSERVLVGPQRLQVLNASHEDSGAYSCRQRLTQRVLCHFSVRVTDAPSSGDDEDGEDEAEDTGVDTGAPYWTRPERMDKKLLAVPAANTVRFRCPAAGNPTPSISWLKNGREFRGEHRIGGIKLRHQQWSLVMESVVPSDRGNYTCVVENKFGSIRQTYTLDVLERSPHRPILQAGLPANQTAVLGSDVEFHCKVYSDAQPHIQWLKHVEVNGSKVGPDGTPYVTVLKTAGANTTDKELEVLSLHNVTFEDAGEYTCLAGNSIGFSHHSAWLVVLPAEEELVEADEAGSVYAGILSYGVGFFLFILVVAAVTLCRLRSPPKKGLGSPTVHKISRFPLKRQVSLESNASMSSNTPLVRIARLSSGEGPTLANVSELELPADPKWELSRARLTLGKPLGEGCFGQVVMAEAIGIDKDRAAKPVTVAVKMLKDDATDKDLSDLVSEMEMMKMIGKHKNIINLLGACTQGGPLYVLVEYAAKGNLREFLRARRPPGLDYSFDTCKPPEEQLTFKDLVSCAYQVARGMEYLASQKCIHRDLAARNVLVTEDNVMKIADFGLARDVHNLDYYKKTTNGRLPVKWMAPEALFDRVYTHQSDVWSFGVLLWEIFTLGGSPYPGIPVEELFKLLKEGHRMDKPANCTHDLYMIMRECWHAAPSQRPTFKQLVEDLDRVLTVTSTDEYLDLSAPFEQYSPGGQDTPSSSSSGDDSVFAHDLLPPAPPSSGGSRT

FGFR1 = FGFR1 (UniProt P11362); assay: as above
Jak2 = Jak2 (UniProt O60674); assay: as above
EPHB1 = EPHB1 (UniProt P54762); assay: as above
Fyn = Fyn (UniProt P06241); assay: as above
Fyn, sequence (P06241 whole entry, looked up): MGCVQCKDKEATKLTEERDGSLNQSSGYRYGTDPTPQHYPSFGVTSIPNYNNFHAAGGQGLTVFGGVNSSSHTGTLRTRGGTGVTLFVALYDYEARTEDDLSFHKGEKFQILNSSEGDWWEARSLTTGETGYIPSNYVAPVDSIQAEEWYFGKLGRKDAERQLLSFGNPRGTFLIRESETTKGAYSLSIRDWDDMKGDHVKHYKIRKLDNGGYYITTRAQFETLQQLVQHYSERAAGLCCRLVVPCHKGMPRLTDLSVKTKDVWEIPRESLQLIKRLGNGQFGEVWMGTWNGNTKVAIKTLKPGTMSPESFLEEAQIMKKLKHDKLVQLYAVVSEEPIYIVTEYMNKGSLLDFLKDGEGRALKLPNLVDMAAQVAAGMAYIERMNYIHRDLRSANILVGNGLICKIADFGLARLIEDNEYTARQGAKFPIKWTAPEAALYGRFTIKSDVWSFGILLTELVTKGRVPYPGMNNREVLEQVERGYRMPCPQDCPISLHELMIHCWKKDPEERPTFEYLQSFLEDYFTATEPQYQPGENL

c-Abl (mouse) = assay: as above
AncSZ = assay: as above
Fer (mouse) = assay: as above
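Throughout, for SH2 binding enrichment of the phosphorylated peptide, bacterial display: peptide library displayed on the E. coli surface as eCPX fusions, selected cells deep-sequenced, score is each peptide's frequency after selection divided by its frequency in the input.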
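Throughout, for phosphorylation enrichment, bacterial display: 11-residue human phosphosite peptides and single-mutation variants displayed on the E. coli surface, counted by deep sequencing, each peptide's frequency after selection divided by its frequency in the unselected input library; frequency after pTyr selection over input frequency; kinase dosed for 20-30% of maximal phosphorylation in three min.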

Grb2 SH2, sequence (P62993 whole entry, looked up): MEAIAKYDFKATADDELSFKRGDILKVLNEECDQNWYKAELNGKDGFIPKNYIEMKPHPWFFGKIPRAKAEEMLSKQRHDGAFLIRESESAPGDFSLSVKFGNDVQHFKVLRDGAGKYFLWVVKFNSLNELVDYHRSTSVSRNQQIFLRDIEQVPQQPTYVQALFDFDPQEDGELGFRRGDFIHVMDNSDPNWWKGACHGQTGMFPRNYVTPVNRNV

Sequence	SH2 binding enrichment (Grb2 SH2)	SH2 binding enrichment (c-Src SH2)	SH2 binding enrichment (SHP2-C SH2)	phosphorylation enrichment (Fes)	phosphorylation enrichment (EPHB2)	phosphorylation enrichment (c-Src)	phosphorylation enrichment (MERTK)	phosphorylation enrichment (Hck)	phosphorylation enrichment (FGFR3)	phosphorylation enrichment (FGFR1)	phosphorylation enrichment (Jak2)	phosphorylation enrichment (EPHB1)	phosphorylation enrichment (Fyn)	phosphorylation enrichment (c-Abl (mouse))	phosphorylation enrichment (AncSZ)	phosphorylation enrichment (Fer (mouse))
AEMTGYVVTRW [MAPK13_Y182]	0.845	0.47	0.586	1.3	0.586	0.486	0.372	0.467	0.834	0.526	1.34	0.636	0.468	0.895	1.17	0.499
AEYGLYAAMVR [VSX2_Y222_G223A]	0.82	0.485	0.574	1.4	9.84	4.7	6.46	7.14	0.895	0.639	1.16	8.53	6.68	3.28	1.65	5.05
AFGEVYEGQES [ALK_Y1131_V1135E]	0.842	0.557	0.677	1.05	0.622	0.75	0.438	0.629	0.645	0.485	1.14	0.526	0.598	0.842	1.32	0.478
AFGEVYEGQVS [ALK_Y1131]	0.914	0.499	0.456	1.11	0.64	1.54	0.442	0.937	0.667	0.695	0.846	0.539	0.772	0.764	0.974	0.459
AFLLLCFNDTH [BMP15_Y235_Y235C]	1.01	0.704	1	1.44	0.696	0.413	0.484	0.561	0.918	0.501	1.63	0.724	0.563	1.01	1.42	0.663
AGARMYGVLPW [PLP1_Y207_D203G]	0.782	0.513	0.549	0.75	0.724	3.6	0.842	5.5	0.495	0.489	0.55	0.542	4.8	0.667	0.67	0.447
AGREIYESEKC [TTN_Y4424_D4427E]	1.15	0.844	1.09	0.925	0.585	0.59	0.547	0.495	0.638	0.535	0.846	0.427	0.525	0.708	0.856	0.47
AGRTGYDNREI [BCL2_Y9]	0.779	0.504	0.718	0.955	0.394	0.537	0.429	0.367	0.509	0.461	0.848	0.392	0.427	0.974	0.779	0.5
AGTILYHAHLG [ASS1_Y291_D296G]	0.737	0.483	0.543	1.07	0.633	0.549	0.863	0.61	0.625	0.517	0.816	0.534	0.564	0.727	0.819	0.495
AHLLQYNHQVK [LGALS3_Y221_R224Q]	0.631	0.503	0.401	0.9	0.505	0.459	0.521	0.508	0.545	0.579	0.517	0.503	0.706	0.474	0.706	0.583
AIYWRYSKFFD [SH3PXD2B_Y45_R43W]	0.794	0.466	0.645	1.05	0.681	0.97	0.421	0.886	0.804	0.57	1.07	0.982	1.49	1.1	1.3	0.526
AKIDGYIISFR	0.936	0.576	0.547	1.13	0.412	0.315	0.37	0.365	0.654	0.472	1.06	0.575	0.412	0.559	1.1	0.386
AKKKMYSCKTK [AGXT_Y231_R233C]	1.44	1.2	1.59	1.19	0.578	0.474	0.529	0.537	1.64	0.588	2.73	0.62	0.417	1.95	1.01	0.613
ALEKTYNTFRS [B4GALNT2_Y538_YF]	0.872	0.457	0.591	0.509	0.406	1.78	0.382	0.704	0.456	0.433	0.73	0.351	0.777	0.503	0.573	0.422
LSCVIYVILRK [PMP22_Y153_G150C]	2.2	1.75	2.02			1.06					1.83			1.39		
